Experimental findings from patent publication US20150361183A1 (published 2015) are described below.

Like-named read-outs stand apart in the source and are kept apart here.

Assay [1] concerns the target T1, iC3b (UniProt P01024 23-667; P01024 749-1303; P01024 1321-1663). The experiment in a line: SPR; thioester-coupled (clustered), steady state.
Assay [2] concerns the target T2, C3b (UniProt P01024 749-1663; P01024 23-667). Nature of the assay: SPR; amine-coupled C3b (monomeric), steady state. On the technique in general: SPR reads the build-up and loss of mass on a sensor chip optically.
For a further assay, the target named is C3dg (UniProt P01024 955-1303). The experiment in a line: SPR; thioester-coupled (clustered), steady state.
The target in assay [3] is T2, C3b. Nature of the assay: SPR; thioester-coupled C3b (clustered), steady state.
For assay [4], the target named is T1, iC3b. Nature of the assay: SPR; thioester-coupled (clustered), steady state. This is another data set of the same source.
In assay [5] the target is T2, C3b. The experiment in a line: SPR; amine-coupled C3b (monomeric), steady state. The source holds these as a separate data set.

T2 sequence (P01024 749-1663, chain 1 of 2): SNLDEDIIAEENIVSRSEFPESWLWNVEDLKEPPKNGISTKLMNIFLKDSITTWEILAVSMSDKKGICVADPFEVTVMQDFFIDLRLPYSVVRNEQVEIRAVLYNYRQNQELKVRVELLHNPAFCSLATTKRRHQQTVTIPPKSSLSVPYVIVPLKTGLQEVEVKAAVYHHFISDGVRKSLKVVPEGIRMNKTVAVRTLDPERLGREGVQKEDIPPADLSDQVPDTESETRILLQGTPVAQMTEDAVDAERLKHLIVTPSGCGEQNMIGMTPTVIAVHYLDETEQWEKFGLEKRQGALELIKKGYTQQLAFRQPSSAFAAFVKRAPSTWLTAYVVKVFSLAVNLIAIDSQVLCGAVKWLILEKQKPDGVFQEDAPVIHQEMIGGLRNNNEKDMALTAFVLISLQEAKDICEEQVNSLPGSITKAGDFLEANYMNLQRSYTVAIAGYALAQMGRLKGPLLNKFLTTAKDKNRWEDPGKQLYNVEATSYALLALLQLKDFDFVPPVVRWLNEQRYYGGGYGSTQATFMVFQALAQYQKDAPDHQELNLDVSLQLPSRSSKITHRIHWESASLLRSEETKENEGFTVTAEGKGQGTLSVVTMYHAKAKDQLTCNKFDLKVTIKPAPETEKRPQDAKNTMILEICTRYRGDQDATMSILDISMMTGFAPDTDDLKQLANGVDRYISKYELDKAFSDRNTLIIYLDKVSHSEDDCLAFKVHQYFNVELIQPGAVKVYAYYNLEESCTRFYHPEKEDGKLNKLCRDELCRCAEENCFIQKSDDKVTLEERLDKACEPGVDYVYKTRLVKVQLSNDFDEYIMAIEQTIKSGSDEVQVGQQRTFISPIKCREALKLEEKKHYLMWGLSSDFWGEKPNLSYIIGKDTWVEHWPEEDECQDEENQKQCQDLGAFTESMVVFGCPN
T2 sequence (P01024 23-667, chain 2 of 2): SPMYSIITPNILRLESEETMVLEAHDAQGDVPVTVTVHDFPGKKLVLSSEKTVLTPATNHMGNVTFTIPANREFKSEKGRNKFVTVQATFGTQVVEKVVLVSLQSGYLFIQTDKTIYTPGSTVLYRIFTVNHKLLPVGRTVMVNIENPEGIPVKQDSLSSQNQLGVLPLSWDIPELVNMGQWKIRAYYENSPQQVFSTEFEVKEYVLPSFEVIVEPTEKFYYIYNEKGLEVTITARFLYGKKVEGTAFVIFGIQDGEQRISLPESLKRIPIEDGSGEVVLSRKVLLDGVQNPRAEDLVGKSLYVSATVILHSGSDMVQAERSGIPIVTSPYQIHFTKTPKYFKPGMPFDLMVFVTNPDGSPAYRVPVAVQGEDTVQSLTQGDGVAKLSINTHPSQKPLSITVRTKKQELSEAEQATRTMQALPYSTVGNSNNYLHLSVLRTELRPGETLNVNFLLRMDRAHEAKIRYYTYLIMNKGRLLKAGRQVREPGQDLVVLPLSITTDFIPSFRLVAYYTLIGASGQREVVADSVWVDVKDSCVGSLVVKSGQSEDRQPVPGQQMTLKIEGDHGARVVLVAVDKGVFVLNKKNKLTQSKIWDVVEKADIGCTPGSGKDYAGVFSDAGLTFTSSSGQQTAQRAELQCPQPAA
T1 sequence (P01024 23-667, chain 1 of 3): as the sequence (P01024 23-667, chain 2 of 2) above
T1 sequence (P01024 749-1303, chain 2 of 3): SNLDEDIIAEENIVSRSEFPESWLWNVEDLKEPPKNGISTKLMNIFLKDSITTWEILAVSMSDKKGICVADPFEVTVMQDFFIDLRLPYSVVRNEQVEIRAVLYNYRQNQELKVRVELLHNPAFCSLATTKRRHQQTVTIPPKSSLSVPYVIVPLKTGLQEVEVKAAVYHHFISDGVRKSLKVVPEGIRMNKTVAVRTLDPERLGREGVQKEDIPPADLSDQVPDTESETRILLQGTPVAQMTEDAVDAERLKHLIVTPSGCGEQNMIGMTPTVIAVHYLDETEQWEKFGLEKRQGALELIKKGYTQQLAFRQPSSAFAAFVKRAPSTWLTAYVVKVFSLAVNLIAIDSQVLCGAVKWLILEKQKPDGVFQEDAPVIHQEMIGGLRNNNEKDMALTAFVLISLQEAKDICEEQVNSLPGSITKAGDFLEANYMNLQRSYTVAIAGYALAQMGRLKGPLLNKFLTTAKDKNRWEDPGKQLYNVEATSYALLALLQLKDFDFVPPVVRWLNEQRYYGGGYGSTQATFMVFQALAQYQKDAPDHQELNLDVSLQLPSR
T1 sequence (P01024 1321-1663, chain 3 of 3): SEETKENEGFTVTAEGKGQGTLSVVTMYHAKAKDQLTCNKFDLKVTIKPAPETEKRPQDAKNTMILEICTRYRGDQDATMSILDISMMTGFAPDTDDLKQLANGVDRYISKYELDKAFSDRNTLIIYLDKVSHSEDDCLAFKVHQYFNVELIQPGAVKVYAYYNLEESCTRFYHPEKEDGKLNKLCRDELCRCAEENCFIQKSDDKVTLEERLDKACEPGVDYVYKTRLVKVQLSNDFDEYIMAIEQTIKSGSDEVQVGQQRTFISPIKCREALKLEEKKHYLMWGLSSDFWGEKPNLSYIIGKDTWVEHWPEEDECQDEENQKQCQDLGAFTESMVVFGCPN
Chain of C3dg (P01024 955-1303): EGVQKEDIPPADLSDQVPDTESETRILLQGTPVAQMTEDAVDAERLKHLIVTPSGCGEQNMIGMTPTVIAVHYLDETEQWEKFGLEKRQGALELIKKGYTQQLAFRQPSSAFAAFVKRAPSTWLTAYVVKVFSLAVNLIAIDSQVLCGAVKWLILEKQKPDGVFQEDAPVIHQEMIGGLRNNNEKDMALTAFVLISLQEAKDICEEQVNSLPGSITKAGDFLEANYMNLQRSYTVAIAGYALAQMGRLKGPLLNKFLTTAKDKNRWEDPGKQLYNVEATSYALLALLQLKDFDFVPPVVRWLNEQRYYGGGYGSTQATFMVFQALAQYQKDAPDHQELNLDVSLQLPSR

B1: CFHR5 (complement factor H-related protein 5), wild type (other)
chain: EGTLCDFPKIHHGFLYDEEDYNPFSQVPTGEVFYYSCEYNFVSPSKSFWTRITCTEEGWSPTPKCLRMCSFPFVKNGHSESSGLIHLEGDTVQIICNTGYSLQNNEKNISCVERGWSTPPICSFTKGECHVPILEANVDAQPKKESYKVGDVLKFSCRKNLIRVGSDSVQCYQFGWSPNFPTCKGQVRSCGPPPQLSNGEVKEIRKEEYGHNEVVEYDCNPNFIINGPKKIQCVDGEWTTLPTCVEQVKTCGYIPELEYGYVQPSVPPYQHGVSVEVNCRNEYAMIGNNMITCINGIWTELPMCVATHQLKRCKIAGVNIKTLLKLSGKEFNHNSRIRYRCSDIFRYRHSVCINGKWNPEVDCTEKREQFCPPPPQIPNAQNMTTTVNYQDGEKVAVLCKENYLLPEAKEIVCKDGRWQSLPRCVESTAYCGPPPSINNGDTTSFPLSVYPPGSTVTYRCQSFYKLQGSVTVTCRNKQWSEPPRCLDPCVVSEENMNKNNIQLKWRNDGKLYAKTGDAVEFQCKFPHKAMISSPPFRAICQEGKFEYPICE
The Kd is a measure of binding affinity in units of concentration. For the molecule B1, the dissociation constant (Kd) with iC3b [1] was determined as 270 nM; with C3b [2], 3800 nM; with C3dg, 270 nM; with C3b [3], 310 nM.

B2: Complement factor H (CFH) (other)
chain: EDCNELPPRRNTEILTGSWSDQTYPEGTQAIYKCRPGYRSLGNVIMVCRKGEWVALNPLRKCQKRPCGHPGDTPFGTFTLTGGNVFEYGVKAVYTCNEGYQLLGEINYRECDTDGWTNDIPICEVVKCLPVTAPENGKIVSSAMEPDREYHFGQAVRFVCNSGYKIEGDEEMHCSDDGFWSKEKPKCVEISCKSPDVINGSPISQKIIYKENERFQYKCNMGYEYSERGDAVCTESGWRPLPSCEEKSCDNPYIPNGDYSPLRIKHRTGDEITYQCRNGFYPATRGNTAKCTSTGWIPAPRCTLKPCDYPDIKHGGLYHENMRRPYFPVAVGKYYSYYCDEHFETPSGSYWDHIHCTQDGWSPAVPCLRKCYFPYLENGYNQNYGRKFVQGKSIDVACHPGYALPKAQTTVTCMENGWSPTPRCIRVKTCSKSSIDIENGFISESQYTYALKEKAKYQCKLGYVTADGETSGSITCGKDGWSAQPTCIKSCDIPVFMNARTKNDFTWFKLNDTLDYECHDGYESNTGSTTGSIVCGYNGWSDLPICYERECELPKIDVHLVPDRKKDQYKVGEVLKFSCKPGFTIVGPNSVQCYHFGLSPDLPICKEQVQSCGPPPELLNGNVKEKTKEEYGHSEVVEYYCNPRFLMKGPNKIQCVDGEWTTLPVCIVEESTCGDIPELEHGWAQLSSPPYYYGDSVEFNCSESFTMIGHRSITCIHGVWTQLPQCVAIDKLKKCKSSNLIILEEHLKNKKEFDHNSNIRYRCRGKEGWIHTVCINGRWDPEVNCSMAQIQLCPPPPQIPNSHNMTTTLNYRDGEKVSVLCQENYLIQEGEEITCKDGRWQSIPLCVEKIPCSQPPQIEHGTINSSRSSQESYAHGTKLSYTCEGGFRISEENETTCYMGKWSSPPQCEGLPCKSPPEISHGVVAHMSDSYQYGEEVTYKCFEGFGIDGPAIAKCLGEKWSHPPSCIKTDCLSLPSFENAIPMGEKKDVYKAGEQVTYTCATYYKMDGASNVTCINSRWTGRPTCRDTSCVNPPTVQNAYIVSRQMSKYPSGERVRYQCRSPYEMFGDEEVMCLNGNWTEPPQCKDSTGKCGPPPPIDNGDITSFPLSVYAPASSVEYQCQNLYQLEGNKRITCRNGQWSEPPKCLHPCVISREIMENYNIALRWTAKQKLYSRTGESVEFVCKRGYRLSSRSHTLRTTCWDGKLEYPTCAKR
For the molecule B2, the Kd with iC3b [4] came out at 2600 nM; in the assay with C3b [5], 1700 nM.
